Substrate in this series: CCCC(=O)Oc1ccc([N+](=O)[O-])cc1
Kind of series: purified protein. The class given is biochemical, uncultured microorganism. As to conditions: free (soluble) enzyme, potassium phosphate pH 6.5, 18 °C, substrate range printed as 1.0 to 10.0 mM, does not fit the printed Km unit.

Consider one protein from publication PMC5594479, “Identification and immobilization of a novel cold-adapted esterase, and its potential for bioremediation of pyrethroid-contaminated vegetables” (Microbial Cell Factories, 2017).

B1: Est684 (uncultured microorganism) (protein)
chain: MPSGENQFYVDKPSRGENYGAYVADELVEFTRKMFPLSYKKEDTFIAGLSMGGYGALINGLKYHETFSHIGAFSPGLMIDDIASRSELLSVTGWSMDFYGNSFGGIDTIKNSDKDYYYLIDQLLENKKEIPKIYLPIGTDDFLLESVRGFKSFVDKREVPLTYIEDDGGHEWDFWDKYVKNFLEWLPLEEKGNYLNSGNVAEHGFRDADAQKAQAALVAWFEETLKK
notes: E. coli BL21 (DE3); Ni-NTA and Superdex 200; putative triad S103/D167/H203
Regarding B1, the Michaelis-Menten constant (Km) was determined as 6.01 mM and the catalytic constant (kcat) worked out at 417.15 ± 1.51 s⁻¹.

For orientation: Km means the substrate concentration at which the rate is half of its maximum. Usually kcat stands for the number of substrate molecules converted per active site and unit of time at saturation.
